Experimental data reported in article PMC13378486, “Design and Synthesis of Peptide‐Polyester Conjugates for Cell‐Mediated Scaffold Degradation” (Advanced Healthcare Materials, 2026).

Assays:
[1] = tested on: Collagenase Type I (Clostridium histolyticum); test: In vitro degradation of peptide-PCL samples with collagenase; assay type: in vitro ADME; details: 37°C, mean ± SD; for Mass loss in collagenase: 2 mg/mL collagenase in ZB, 21 days, washed, lyophilized, weighed, n = 4; for Cumulative Cy3 release / Cumulative Cy3 release as % of the total Cy3 in the sample: 10 mm solvent-cast disks, 2 mg/mL collagenase in 1X ZB, 5% CO2, 21 days, fluorescence ex 550/em 580 nm, n = 6
Procedure: (§1) Samples were pinned to silicone elastomer‐coated 24‐well plates using 0.1 mm dissection pins. The degradation behavior of the samples in the presence of collagenase was assessed by immersing pinned samples in 2 mg/mL collagenase in 1X Zymogram Developing Buffer (ZB). Solutions (1 mL) were collected and changed after the first day of incubation then after every 3–4 days. Samples were placed in an incubator (37°C, 5% CO2) for up to 21 days. Samples were also exposed to ZB as a baseline control.
(§2) Samples were weighed before and after 21 days of incubation with ZB or collagenase. After the 21‐day incubation period, samples were collected and washed three times with ultrapure water to remove residual enzymes or salts. Following washing, samples were lyophilized and subsequently weighed to determine the final mass. Percent mass loss was calculated based on the difference between initial and final masses.

[2] = assay type: in vitro ADME
Procedure: as §1, §2

[3] = tested on: multiple cell types; details: prior peptide screening methods; cited from earlier work
Excerpt: We also included a scrambled version of Fast (LTRLMEKRRKV; ScrFast) in which the positions of uncharged amino acids (L, M, V) were exchanged with the charged amino acids (E, K, R). We quantified degradation of these four peptides with different mac ...

Row | Substance | Mass loss in collagenase [1] | Cumulative Cy3 release [1] | Cumulative Cy3 release as % of the total Cy3 in the sample [1] | Mass loss in ZB [2] | Peptide degradation behavior in prior peptide screening [3]
1 | CK(Cy3)KRVKRRL↓LMETC [Fast‐PCL, linear PCL‐PEG‐peptide‐PEG‐PCL conjugate of Cy3‐modified Fast with maleimide‐functionalized PCL (25 kDa) / PEG (5 kDa); tested as solvent‐cast disks with RGDS‐PCL] | 22.1% ± 1.2% | 20.38 ± 2.17 nmol | 25.77% ± 3.70% | 16.5% ± 1.6% | –
2 | PPDKTSPEPA [Control] | – | – | – | – | negligible degradation behavior
3 | CK(Cy3)LTRLMEKRRKVC [ScrFast‐PCL, linear PCL‐PEG‐peptide‐PEG‐PCL conjugate of Cy3‐modified ScrFast; tested as solvent‐cast disks with RGDS‐PCL] | 18.9% ± 3.8% | 8.70 ± 0.92 nmol | 11.31% ± 1.01% | 15.2% ± 7.8% | –
